How the values were obtained:
human CD40 [1] = biological target: T1, human CD40 (Homo sapiens, UniProt P25942); assay: Uptake of peptide C-FITC in HEK293T-CD40 cells, confocal microscopy; type: cell-based; conditions: 0.5 μM protein, 5 μM peptide C-FITC, ADP, 30 min 0° C. then 15 min 37° C.
T1 construct: CD40 full-length cDNA was cloned by PCR; expressed in transfected cells
Description: For experiments to study uptake of Hsp70/peptide C-FITC complex, HEK293T-CD40 and HEK293T-MCAT cells were seeded on collagen-coated cover slips 24 h prior to the experiment. For complex formation Hsp70, its N-terminal domain (N70) or its C-terminal domain (C70) were preincubated with a 10-fold molar excess of peptide C-FITC for 30 min at 37° C., as described above for the biotinylated proteins. HEK293T-CD40 and HEK293T-MCAT were incubated with 0.5 μM of Hsp70, N70 or C70, preincubated with 2 mM ADP and 5 μM peptide C-FITC, or 5 μM peptide C-FITC alone for 30 min on ice. Thereafter the cells were washed three times with medium, incubated for 15 min at 37° C., and fixed, embedded in Fluoromount-G and analyzed by confocal microscopy (LSM 510, Zeiss).
Next, the binding of Hsp70-peptide complex to CD40 was studied, which results in the uptake of peptide. To this end, HEK293T-CD40 cells and HE293T-MCAT cells (not expressing CD40) were incubated with a fluorescent (FITC) derivative of peptide C for 30 min at 0° C. in the presence of ADP, with or without Hsp70 or its two domains. After removal of excess material, the cells were incubated at 37° C. for 15 min, fixed and then analyzed by fluorescence microscopy. […] (FIG. 6B, panel 1). […] Neither did HEK293T-MCAT control cells give rise to a signal under any of the conditions tested (not shown). We conclude that the specific interaction of CD40 with Hsp70-peptide complex mediates the uptake of peptide.
Details for FIG. 6. Binding of Hsp70 complex to CD40-expressing HEK293T cells induces signaling via p38 and causes peptide uptake. A. HEK293T-cells, stably transfected with cDNA encoding human CD40 or the unrelated membrane protein murine cationic amino acid transporter (MCAT) were incubated for 20 min at 37° C. with CD40L or with Hsp70, C70, N70, bacterial DnaK either in the presence of ADP or AMPPNP, or buffer alone. Thereafter cells were washed, solubilized in SDS-sample buffer, and analyzed by immunoblotting with antibodies directed against phosphorylated (active) p38. Blots were also developed with an antibody against tubulin in order to control for equal loading. B. Cells were incubated at 0° C. for 30 min with recombinant human Hsp70, N70, or C70, all in the presence FITC-labeled peptide, or with the FITC-labeled peptide alone. Thereafter cells were washed, incubated for 15 min at 37° C., and processed for fluorescence microscopy. Upper left panel: Hsp70, upper right panel: FITC-labeled peptide alone, lower left panel: C70, lower right panel: N70. Only cells stably transfected with CD40 are shown. Cell boundaries are emphasized with broken lines.

human CD40 [2] = biological target: T1, human CD40; assay: Binding to Cos-7 cells transiently transfected with human CD40 cDNA, fluorescence microscopy; type: cell-based; conditions: 250 nM biotinylated protein, 30 min at 0° C.
Description: Cell culture and fluorescence microscopy. The murine macrophage cell line ANA1 was kindly provided by H. Wagner (Munich, Germany). ANA-1 cells were cultured in VLE-RPMI 1640 (Biochrom), supplemented with 10% FCS, 2 mM L-glutamine and antibiotics. For fluorescence microscopy, ANA1 cells were either stimulated with LPS (20 μg/ml, Sigma, Germany), or kept in an LPS-free medium (mock treatment) for 7 h. After stimulation, cells were harvested and incubated with 100 nM biotinylated Hsp70, biotinylated GST, or Hsp70/peptide C-biotin complex for 30 min at 0° C. in VLE-RPMI 1640. After incubation cells were processed for staining with streptavidin-TRITC (Sigma, Germany), fixed with paraformaldehyde and analyzed by fluorescence microscopy (Axiovert 35, Zeiss) as described (Sondermann et al., 2000). […] Twenty-four h post-transfection cells were incubated with 250 nM biotinylated Hsp70, biotinylated GST or Hsp70/peptide C-biotin complex for 30 min at 0° C. in DMEM, fixed, stained with streptavidin-TRITC (Sigma, Germany), and analyzed by fluorescence microscopy as described (Sondermann et al., 2000, idem). […] Stably transfected cell lines were analyzed by immunoblotting for CD40 expression using an anti-CD40 antibody (CSA180, Stressgen). […]
Mock-treated and LPS-stimulated ANA-1 cells were analyzed for their expression of CD40. […]

T1 sequence (P25942 21-277): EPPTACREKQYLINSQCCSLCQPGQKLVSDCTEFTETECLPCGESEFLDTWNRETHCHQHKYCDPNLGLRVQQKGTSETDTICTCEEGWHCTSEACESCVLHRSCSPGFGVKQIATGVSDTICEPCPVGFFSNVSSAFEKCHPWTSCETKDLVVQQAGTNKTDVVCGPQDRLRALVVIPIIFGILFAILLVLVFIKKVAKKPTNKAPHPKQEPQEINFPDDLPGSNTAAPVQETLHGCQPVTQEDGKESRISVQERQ

| Substance | uptake of fluorescent (FITC) peptide C into HEK293T-CD40 cells (human CD40 [1]) | binding to CD40-transfected Cos-7 cells (human CD40 [2]) |
| --- | --- | --- |
| Hsp70: Recombinant human heat shock protein 70, expressed and purified as His-tagged protein | fluorescent peptide was observed in punctuate intracellular structures only in cells expressing CD40 | bound to the surface of transfected cells but not to untransfected cells |
| N70: Recombinant N-terminal ATPase domain of human Hsp70, residues 5-381 (SEQ ID NO: 1) | did not result in a peptide signal above background |  |
